Assay results as given in patent US11795460B2, “Compositions and methods for TTR gene editing and treating ATTR amyloidosis” (Intellia Therapeutics, Inc., priority 2017, dated 2023).
Strand notation (5' to 3'): a small letter for the sugar, then the base; units joined by * are phosphorothioate-linked, units joined directly phosphodiester-linked; [ ] holds rarer units or linkages, { } end groups; capitals alone tell only the bases. m = 2'-O-methyl; r = 2'-OH (RNA)

Columns and labels:
TTR [1] = assay: EC50 and maximum editing in primary human hepatocytes treated with LNP formulated U-depleted Spy Cas9 mRNA and sgRNAs (Tables 19, 21); type: cell-based; design: key: % of sequence reads with indels or substitutions over total reads; conditions: dose response
Experimental: (§1) Primary liver hepatocytes. Primary human liver hepatocytes (PHH) and primary cynomolgus liver hepatocytes (PCH) (Gibco) were cultured per the manufacturer's protocol (Invitrogen, protocol 11.28.2012). In brief, the cells were thawed and resuspended in hepatocyte thawing medium with supplements (Gibco, Cat. CM7000) followed by centrifugation at 100 g for 10 minutes for human and 80 g for 4 minutes for cyno. The supernatant was discarded and the pelleted cells resuspended in hepatocyte plating medium plus supplement pack (Invitrogen, Cat. A1217601 and CM3000). Cells were counted and plated on Bio-coat collagen I coated 96-well plates (ThermoFisher, Cat. 877272) at a density of 33,000 cells/well for human or 60,000 cells/well for cyno (or 65,000 cells/well when assaying effects on TTR protein, described further below). Plated cells were allowed to settle and adhere for 6 or 24 hours in a tissue culture incubator at 37° C. and 5% CO2 atmosphere. After incubation cells were checked for monolayer formation and media was replaced with hepatocyte culture medium with serum-free supplement pack (Invitrogen, Cat. A1217601 and CM4000).
(§2) For LNPs prepared using the cross-flow technique, the LNPs were formed by impinging jet mixing of the lipid in ethanol with two volumes of RNA solutions and one volume of water. The lipid in ethanol is mixed through a mixing cross with the two volumes of RNA solution. A fourth stream of water is mixed with the outlet stream of the cross through an inline tee. (See WO2016010840 FIG. 2.) The LNPs were held for 1 hour at room temperature, and further diluted with water (approximately 1:1 v/v). Diluted LNPs were concentrated using tangential flow filtration on a flat sheet cartridge (Sartorius, 100 kD MWCO) and then buffer exchanged by diafiltration into 50 mM Tris, 45 mM NaCl, 5% (w/v) sucrose, pH 7.5 (TSS). Alternatively, the final buffer exchange into TSS was completed with PD-10 desalting columns (GE). If required, formulations were concentrated by centrifugation with Amicon 100 kDa centrifugal filters (Millipore). The resulting mixture was then filtered using a 0.2 μm sterile filter. The final LNP was stored at 4° C. or −80° C. until further use.
(§3) To quantitatively determine the efficiency of editing at the target location in the genome, sequencing was utilized to identify the presence of insertions and deletions introduced by gene editing.
(§4) Primers were designed around the target site within the gene of interest (e.g. TTR), and the genomic area of interest was amplified.
(§5) Additional PCR was performed per the manufacturer's protocols (Illumina) to add chemistry for sequencing. The amplicons were sequenced on an Illumina MiSeq instrument. The reads were aligned to a reference genome (e.g., the human reference genome (hg38), the cynomologus reference genome (mf5), the rat reference genome (rn6), or the mouse reference genome (mm10)) after eliminating those having low quality scores. The resulting files containing the reads were mapped to the reference genome (BAM files), where reads that overlapped the target region of interest were selected and the number of wild type reads versus the number of reads which contain an insertion, substitution, or deletion was calculated.
(§6) The editing percentage (e.g., the “editing efficiency” or “percent editing” or “indel frequency”) is defined as the total number of sequence reads with insertions/deletions (“indels”) or substitutions over the total number of sequence reads, including wild type.
(§7) Lipid nanoparticle formulations of modified sgRNAs targeting human TTR and the cyno matched sgRNA sequences were tested on primary human hepatocytes and primary cyno hepatocytes in a dose response curve. Primary human and cyno hepatocytes were plated as described in Example 1. Both cell lines were incubated at 37° C., 5% CO2 for 24 hours prior to treatment with LNPs. […]

TTR [2] = assay: EC50 and maximum editing in primary cyno hepatocytes treated with LNP formulated U-depleted Spy Cas9 mRNA and sgRNAs (Tables 20, 22); type: cell-based, cynomolgus monkey; design: key: % of sequence reads with indels or substitutions over total reads; conditions: dose response
Experimental: as §1, §2, §3, §4, §5, §6, §7

TTR [3] = assay: TTR editing in primary human hepatocytes transfected with Spy Cas9 protein and sgRNAs (Table 12); type: cell-based; conditions: primary human hepatocytes transfected with Spy Cas9 protein (RNP) and sgRNAs
Experimental: as §1
Ribonucleotide formation was performed prior to electroporation or transfection of Spy Cas9 protein loaded with guide RNAs (RNPs) onto cells. For dual guide (dgRNAs), individual crRNA and trRNA was pre-annealed by mixing equivalent amounts of reagent and incubating at 95° C. for 2 min and cooling to room temperature. Single guide (sgRNAs) were boiled at 95° C. for 2 min and cooling to room temperature. The boiled dgRNA or sgRNA was incubated with Spy Cas9 protein in Optimem for 10 minutes at room temperature to form a ribonucleoprotein (RNP) complex.
For RNP lipoplex transfections, cells were transfected with Lipofectamine RNAiMAX (ThermoFisher, Cat. 13778150) per the manufacturer's protocol. Cells were transfected with an RNP containing Spy Cas9 (10 nM), individual guide (10 nM), tracer RNA (10 nM), Lipofectamine RNAiMAX (1.0 μL/well) and OptiMem. RNP formation was performed as described above.
Transfected cells were harvested post-transfection at 24, 48, or 72 hours. The genomic DNA was extracted from each well of a 96-well plate using 50 μL/well BuccalAmp DNA Extraction solution (Epicentre, Cat. QE09050) per manufacturer's protocol. All DNA samples were subjected to PCR and subsequent NGS analyses, as described herein.
as §3, §4, §5, §6
Guides in modified sgRNA format targeting human and/or cyno TTR were delivered to primary human hepatocytes and primary cyno hepatocytes as described in Example 1. […]

TTR [4] = assay: TTR editing in primary cyno hepatocytes electroporated with Spy Cas9 protein and sgRNAs (Tables 14, 15); type: cell-based, cynomolgus monkey
Procedure, shortened: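 Spy Cas9 RNPs with boiled sgRNAs electroporated (Lonza P3 buffer, program EX-147) into primary cynomolgus hepatocytes; harvest at 24, 48 or 72 h. TTR target site PCR-amplified and sequenced on Illumina MiSeq, reads aligned to mf5; percent editing is reads with indels or substitutions over total reads.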

[5] = Table 19, LNP with U-depleted Spy Cas9 mRNA and human specific sgRNAs
[6] = Table 20, LNP with U-depleted Spy Cas9 mRNA and human specific sgRNAs
[7] = Table 14, primary cyno hepatocytes electroporated with Spy Cas9 protein (RNP) and sgRNAs
[8] = Table 15, primary cyno hepatocytes electroporated with Spy Cas9 protein (RNP) and cyno specific sgRNAs

Molecule	Max Editing (TTR [1]; [5])	Max Editing (TTR [2]; [6])	Avg % Deletion (TTR [3]) [%]	Avg % Edit (TTR [3]) [%]	Avg % Insert (TTR [3]) [%]	also measured
G000568: TTR sgRNA modified sequence, Human, SEQ ID No. 110; guide sequence of CR003391 (nucleic acid) guide: mG*mG*mC*rUrGrUrCrGrUrCrArCrCrArArUrCrCrCrArGrUrUrUrUrArGrAmGmCmUmAmGmAmAmAmUmAmGmCrArArGrUrUrArArArArUrArArGrGrCrUrArGrUrCrCrGrUrUrArUrCrAmAmCmUmUmGmAmAmAmAmAmGmUmGmGmCmAmCmCmGmAmGmUmCmGmGmUmGmCmU*mU*mU*mU	95.72	87.93				
G000570: TTR sgRNA modified sequence, Human, SEQ ID No. 111; guide sequence of CR003347 (nucleic acid) guide: mC*mA*mU*rUrGrArUrGrGrCrArGrGrArCrUrGrCrCrUrGrUrUrUrUrArGrAmGmCmUmAmGmAmAmAmUmAmGmCrArArGrUrUrArArArArUrArArGrGrCrUrArGrUrCrCrGrUrUrArUrCrAmAmCmUmUmGmAmAmAmAmAmGmUmGmGmCmAmCmCmGmAmGmUmCmGmGmUmGmCmU*mU*mU*mU	98.22	96.73				
G000571: TTR sgRNA modified sequence, Human, SEQ ID No. 112; guide sequence of CR005301 (nucleic acid) guide: mG*mU*mC*rArCrArGrArArArCrArCrUrCrArCrCrGrUrGrUrUrUrUrArGrAmGmCmUmAmGmAmAmAmUmAmGmCrArArGrUrUrArArArArUrArArGrGrCrUrArGrUrCrCrGrUrUrArUrCrAmAmCmUmUmGmAmAmAmAmAmGmUmGmGmCmAmCmCmGmAmGmUmCmGmGmUmGmCmU*mU*mU*mU	71.28	97.03				
G000484: TTR sgRNA modified sequence, Human, SEQ ID No. 91; guide sequence of CR003367 (nucleic acid) guide: mA*mG*mA*rCrArCrCrArArArUrCrUrUrArCrUrGrGrArGrUrUrUrUrArGrAmGmCmUmAmGmAmAmAmUmAmGmCrArArGrUrUrArArArArUrArArGrGrCrUrArGrUrCrCrGrUrUrArUrCrAmAmCmUmUmGmAmAmAmAmAmGmUmGmGmCmAmCmCmGmAmGmUmCmGmGmUmGmCmU*mU*mU*mU	94.14	0.22	33.83	62.97	29.23	
G000494: TTR sgRNA modified sequence, Human, SEQ ID No. 101; guide sequence of CR003360 (nucleic acid) guide: mG*mU*mG*rArGrUrCrUrGrGrArGrArGrCrUrGrCrArUrGrUrUrUrUrArGrAmGmCmUmAmGmAmAmAmUmAmGmCrArArGrUrUrArArArArUrArArGrGrCrUrArGrUrCrCrGrUrUrArUrCrAmAmCmUmUmGmAmAmAmAmAmGmUmGmGmCmAmCmCmGmAmGmUmCmGmGmUmGmCmU*mU*mU*mU	75.70	60.84	0.77	62.23	61.47	Avg % Deletion (TTR [4]; [7]): 2.07%; Avg % Edit (TTR [4]; [7]): 81.53%; Avg % Insert (TTR [4]; [7]): 79.57%
G000567: TTR sgRNA modified sequence, Human, SEQ ID No. 109; guide sequence of CR003352 (nucleic acid) guide: mG*mA*mA*rArGrGrCrUrGrCrUrGrArUrGrArCrArCrCrGrUrUrUrUrArGrAmGmCmUmAmGmAmAmAmUmAmGmCrArArGrUrUrArArArArUrArArGrGrCrUrArGrUrCrCrGrUrUrArUrCrAmAmCmUmUmGmAmAmAmAmAmGmUmGmGmCmAmCmCmGmAmGmUmCmGmGmUmGmCmU*mU*mU*mU		97.06				
G000572: TTR sgRNA modified sequence, Human, SEQ ID No. 113; guide sequence of CR003385 (nucleic acid) guide: mC*mC*mC*rCrUrArCrUrCrCrUrArUrUrCrCrArCrCrArGrUrUrUrUrArGrAmGmCmUmAmGmAmAmAmUmAmGmCrArArGrUrUrArArArArUrArArGrGrCrUrArGrUrCrCrGrUrUrArUrCrAmAmCmUmUmGmAmAmAmAmAmGmUmGmGmCmAmCmCmGmAmGmUmCmGmGmUmGmCmU*mU*mU*mU	97.94	100.31				
G000502: TTR Cyno specific sgRNA modified sequence, SEQ ID No. 114; guide sequence of CR000689; cross homologous between mouse and cyno (nucleic acid) guide: mA*mC*mA*rCrArArArUrArCrCrArGrUrCrCrArGrCrGrGrUrUrUrUrArGrAmGmCmUmAmGmAmAmAmUmAmGmCrArArGrUrUrArArArArUrArArGrGrCrUrArGrUrCrCrGrUrUrArUrCrAmAmCmUmUmGmAmAmAmAmAmGmUmGmGmCmAmCmCmGmAmGmUmCmGmGmUmGmCmU*mU*mU*mU						Avg % Deletion (TTR [4]; [8]): 81.27%; Avg % Edit (TTR [4]; [8]): 95.10%; Avg % Insert (TTR [4]; [8]): 13.97%; Max Editing (TTR [1]; Table 21, LNP with U-depleted Spy Cas9 mRNA and cyno specific sgRNAs): 91.50; Max Editing (TTR [2]; Table 22, LNP with U-depleted Spy Cas9 mRNA and cyno specific sgRNAs): 100.05
G000499: TTR sgRNA modified sequence, Human, SEQ ID No. 106; guide sequence of CR005303 (nucleic acid) guide: mU*mG*mA*rArUrCrCrArArGrUrGrUrCrCrUrCrUrGrArGrUrUrUrUrArGrAmGmCmUmAmGmAmAmAmUmAmGmCrArArGrUrUrArArArArUrArArGrGrCrUrArGrUrCrCrGrUrUrArUrCrAmAmCmUmUmGmAmAmAmAmAmGmUmGmGmCmAmCmCmGmAmGmUmCmGmGmUmGmCmU*mU*mU*mU	96.31	74.94	1.17	66.40	65.23	Avg % Deletion (TTR [4]; [7]): 1.43%; Avg % Edit (TTR [4]; [7]): 83.40%; Avg % Insert (TTR [4]; [7]): 82.00%
G000483: TTR sgRNA modified sequence, Human, SEQ ID No. 90; guide sequence of CR005298 (nucleic acid) guide: mU*mC*mC*rArCrUrCrArUrUrCrUrUrGrGrCrArGrGrArGrUrUrUrUrArGrAmGmCmUmAmGmAmAmAmUmAmGmCrArArGrUrUrArArArArUrArArGrGrCrUrArGrUrCrCrGrUrUrArUrCrAmAmCmUmUmGmAmAmAmAmAmGmUmGmGmCmAmCmCmGmAmGmUmCmGmGmUmGmCmU*mU*mU*mU	77.39	56.52	28.50	47.90	19.57	
